Source: article doi:10.1101/2020.07.28.225359 (bioRxiv, 2020)

Key:
[1] = target: TRIM21 coiled-coil (CC235) (human) (UniProt P19474); test: SEC-MALS
[2] = target: TRIM21 coiled-coil (CC235) (human) (UniProt P19474); test: ITC
SAXS = target: the molecule itself; test: SAXS

Row | stoichiometry N [1] | Kd [2] | dH (dimer dissociation) [2] | Molecule | stoichiometry N (SAXS)
1 | 2 | 7 µM | 65 kcal/mol | TRIM21 coiled-coil (CC235) (from UniProt P19474 132-235) (domain or fragment) | 
2 |  |  |  | MBP-T21CC (MBPCC235) (domain or fragment, human, UniProt P19474 132-235, looked up) AQEYQEKLQVALGELRRKQELAEKLEVEIAIKRADWKKTVETQKSRIHAEFVQQKNFLVEEEQRQLQELEKDEREQLRILGEKEAKLAQQSQALQELISELDRR | 2
